# Experimental data from paper PMC3203615.
# Molecular target: isolated C-terminal domain (CTD, 213-288) of HIV-1 integrase (HIV-1)
# Experiment: SEC
substance,measurement,value
"isolated C-terminal domain (CTD, 213-288) of HIV-1 integrase (domain or fragment)",stoichiometry N,2
